# According to paper PMC2801267:
# B1: 1 x biotin 40-bp dsDNA (dsDNA)
# DNA 1: GGATACACAACAGACCGCAACACTCAGATTACTTTTCGCC
# DNA 2: GGCGAAAAGTAATCTGAGTGTTGCGGTCTGTTGTGTATCC
# modifications: 5'-biotin on oligo 1
# Key:
# [1] = biological target: Ku70/80 heterodimer (Ku);DNA-PKcs (human? (HeLa cells);human? (HeLa cells), UniProt P12956;P13010;P78527 1-609;1-732;1-4128, |); assay: biotin pull-down
# Ku70/80 heterodimer (Ku) = Ku70/80 heterodimer (Ku) (human? (HeLa cells), UniProt P12956;P13010 1-609;1-732); assay: biotin pull-down
# Chain of Ku70/80 heterodimer (Ku) (P12956 whole entry, chain 1 of 2): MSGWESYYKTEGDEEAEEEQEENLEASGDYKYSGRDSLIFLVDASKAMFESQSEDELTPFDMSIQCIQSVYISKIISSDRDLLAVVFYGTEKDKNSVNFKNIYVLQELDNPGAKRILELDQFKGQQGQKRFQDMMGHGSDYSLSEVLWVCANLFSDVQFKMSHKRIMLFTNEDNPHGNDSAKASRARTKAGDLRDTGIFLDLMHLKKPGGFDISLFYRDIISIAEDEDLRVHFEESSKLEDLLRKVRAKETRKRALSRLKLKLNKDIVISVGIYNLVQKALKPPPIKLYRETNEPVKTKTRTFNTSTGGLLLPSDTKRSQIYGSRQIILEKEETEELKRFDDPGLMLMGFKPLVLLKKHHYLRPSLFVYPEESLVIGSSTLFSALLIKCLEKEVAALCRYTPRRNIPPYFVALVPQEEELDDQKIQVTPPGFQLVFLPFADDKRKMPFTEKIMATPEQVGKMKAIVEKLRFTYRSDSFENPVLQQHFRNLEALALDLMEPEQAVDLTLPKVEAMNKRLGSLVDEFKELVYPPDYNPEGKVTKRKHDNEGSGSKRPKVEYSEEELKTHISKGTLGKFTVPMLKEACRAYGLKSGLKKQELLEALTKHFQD
# Chain of Ku70/80 heterodimer (Ku) (P13010 whole entry, chain 2 of 2): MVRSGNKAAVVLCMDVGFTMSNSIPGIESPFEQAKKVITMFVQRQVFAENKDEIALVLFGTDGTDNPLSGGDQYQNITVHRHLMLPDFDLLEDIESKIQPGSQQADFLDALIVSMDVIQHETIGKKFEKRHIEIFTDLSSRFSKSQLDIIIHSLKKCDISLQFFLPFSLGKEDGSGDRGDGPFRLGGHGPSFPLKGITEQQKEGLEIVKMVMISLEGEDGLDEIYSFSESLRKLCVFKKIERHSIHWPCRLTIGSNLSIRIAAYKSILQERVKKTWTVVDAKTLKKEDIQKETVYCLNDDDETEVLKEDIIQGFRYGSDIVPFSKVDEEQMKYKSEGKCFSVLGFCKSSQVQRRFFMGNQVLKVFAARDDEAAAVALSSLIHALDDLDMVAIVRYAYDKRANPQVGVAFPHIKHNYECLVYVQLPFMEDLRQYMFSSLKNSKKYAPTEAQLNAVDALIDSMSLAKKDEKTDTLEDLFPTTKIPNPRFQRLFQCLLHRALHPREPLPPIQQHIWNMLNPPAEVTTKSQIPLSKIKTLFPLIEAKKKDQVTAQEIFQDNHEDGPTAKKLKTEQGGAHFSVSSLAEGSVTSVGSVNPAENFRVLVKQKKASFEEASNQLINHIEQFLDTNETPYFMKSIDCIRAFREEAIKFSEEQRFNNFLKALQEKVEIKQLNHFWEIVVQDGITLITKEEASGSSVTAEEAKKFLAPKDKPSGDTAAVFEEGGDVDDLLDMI
binder,measurement,setting,value
B1,binding result,[1],binds
same,binding result,Ku70/80 heterodimer (Ku),binds
